Tests used:
[1] = molecular target: hamster IgG (IgG in pooled hamster plasma)
[2] = molecular target: human IgG (total IgG in human serum / pooled human plasma)
[3] = molecular target: rhesus IgG (total IgG in rhesus macaque plasma)

B1: immunoglobulin G (IgG)-degrading enzyme from Streptococcus pyogenes (IdeS; Promega) (protein)
chain: DSFSANQEIRYSEVTPYHVTSVWTKGVTPPANFTQGEDVFHAPYVANQGWYDITKTFNGKDDLLCGAATAGNMLHWWFDQNKDQIKRYLEEHPEKQKINFNGEQMFDVKEAIDTKNHQLDSKLFEYFKEKAFPYLSTKHLGVFPDHVIDMFINGYRLSLTNHGPTPVKEGSKDPRGGIFDAVFTRGDQSKLLTSRHDFKEKNLKEISDLIKKELTEGKALGLSHTYANVRINHVINLWGADFDSNGNLKAIYVTDSDSNASIGMKKYFVGVNSAGKVAISAKEIKEDNIGAQVLGLFTLSTGQDSWNQTN
cleavage of IgG in serum/plasma in vitro (non-reducing SDS-PAGE, Coomassie stain) [1]: IdeS is a highly efficient and specific protease of human IgG, rhesus IgG and hamster IgG | cleavage of IgG in serum/plasma in vitro (non-reducing SDS-PAGE, Coomassie stain) [2]: IdeS is a highly efficient and specific protease of human IgG, rhesus IgG and hamster IgG | cleavage of IgG in serum/plasma in vitro (non-reducing SDS-PAGE, Coomassie stain) [3]: IdeS is a highly efficient and specific protease of human IgG, rhesus IgG and hamster IgG

— patent US20230241247
